# B1: HA epitope-tagged Mus81 (HA-Mus81) (natural protein, UniProt Q96NY9 1-551, looked up)
# chain: MAAPVRLGRKRPLPACPNPLFVRWLTEWRDEATRSRRRTRFVFQKALRSLRRYPLPLRSGKEAKILQHFGDGLCRMLDERLQRHRTSGGDHAPDSPSGENSPAPQGRLAEVQDSSMPVPAQPKAGGSGSYWPARHSGARVILLVLYREHLNPNGHHFLTKEELLQRCAQKSPRVAPGSARPWPALRSLLHRNLVLRTHQPARYSLTPEGLELAQKLAESEGLSLLNVGIGPKEPPGEETAVPGAASAELASEAGVQQQPLELRPGEYRVLLCVDIGETRGGGHRPELLRELQRLHVTHTVRKLHVGDFVWVAQETNPRDPANPGELVLDHIVERKRLDDLCSSIIDGRFREQKFRLKRCGLERRVYLVEEHGSVHNLSLPESTLLQAVTNTQVIDGFFVKRTADIKESAAYLALLTRGLQRLYQGHTLRSRPWGTPGNPESGAMTSPNPLCSLLTFSDFNAGAIKNKAQSVREVFARQLMQVRGVSGEKAAALVDRYSTPASLLAAYDACATPKEQETLLSTIKCGRLQRNLGPALSRTLSQLYCSYGPLT
# notes: Mus81, subunit of the Mus81/Eme1 endonuclease; amplified from clone MGC:14953 (Imagenes); Detected with an anti-Mus81 antibody, which may also see the endogenous Mus81 of 293T cells; source: 293T, transiently transfected (pcDNA3), in lysate; not shown: HA, N-terminal, kept
# B2: N-terminal Myc epitope-tagged human PSF2 (Myc-PSF2) (natural protein, UniProt Q9Y248 1-185, looked up)
# chain: MDAAEVEFLAEKELVTIIPNFSLDKIYLIGGDLGPFNPGLPVEVPLWLAINLKQRQKCRLLPPEWMDVEKLEKMRDHERKEETFTPMPSPYYMELTKLLLNHASDNIPKADEIRTLVKDMWDTRIAKLRVSADSFVRQQEAHAKLDNLTLMEINTSGTFLTQALNHMYKLRTNLQPLESTQSQDF
# notes: PSF2, subunit of the GINS complex, human, full length; amplified from clone MGC-673 (ATCC); source: 293T, transiently transfected (pCMV-MYC), in lysate; not shown: Myc, N-terminal, kept
# Key:
# [1] = molecular target: N-terminal Myc epitope-tagged human PSF2 (Myc-PSF2) (UniProt Q9Y248); experiment: co-immunoprecipitation (IP anti-Flag, IB anti-Myc), band ratio; conditions: 293T cells, transient expression
# [2] = molecular target: T1, N-terminal Flag epitope-tagged human Snm1B (Flag-Snm1B) (human, UniProt Q9H816 1-532); experiment: co-IP; 293T transiently co-transfected, RIPA lysate, Flag-Snm1B immunoprecipitated with anti-Flag M2 affinity gel at 4°C overnight, immunoblot for Myc-PSF2 or Mus81; with or without co-expressed Myc-PSF2 or HA-Mus81; conditions: partners not purified
# T1 construct: also called Flag-Snm1B-WT; Flag-Snm1B^WT; source: 293T, transiently transfected (pLPC), in lysate; not shown: Flag, N-terminal, kept
# T1 sequence (looked up): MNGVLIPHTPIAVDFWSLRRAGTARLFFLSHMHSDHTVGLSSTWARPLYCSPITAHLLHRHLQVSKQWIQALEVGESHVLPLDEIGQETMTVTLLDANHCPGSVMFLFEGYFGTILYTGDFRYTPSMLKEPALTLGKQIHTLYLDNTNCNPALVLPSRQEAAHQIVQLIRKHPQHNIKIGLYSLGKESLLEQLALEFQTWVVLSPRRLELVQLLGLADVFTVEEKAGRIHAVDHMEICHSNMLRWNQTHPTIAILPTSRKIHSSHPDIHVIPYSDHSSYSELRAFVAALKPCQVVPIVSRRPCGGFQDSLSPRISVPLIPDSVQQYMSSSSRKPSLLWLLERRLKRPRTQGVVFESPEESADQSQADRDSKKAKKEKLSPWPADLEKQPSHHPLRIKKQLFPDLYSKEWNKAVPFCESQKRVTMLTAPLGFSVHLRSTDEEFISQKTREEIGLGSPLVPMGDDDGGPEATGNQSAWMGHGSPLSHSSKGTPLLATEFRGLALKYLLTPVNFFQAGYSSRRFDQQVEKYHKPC
# Flag-Snm1B^Δ222–363 = molecular target: T2, Flag-Snm1B^Δ222–363 (human, UniProt Q9H816 1-221; Q9H816 364-532); experiment: as above; conditions: partners not purified
# T2 construct: RGR is my translation read in frame from its first base; source: 293T, transiently transfected (pLPC), in lysate; not shown: Flag, N-terminal, kept
# T2 chain: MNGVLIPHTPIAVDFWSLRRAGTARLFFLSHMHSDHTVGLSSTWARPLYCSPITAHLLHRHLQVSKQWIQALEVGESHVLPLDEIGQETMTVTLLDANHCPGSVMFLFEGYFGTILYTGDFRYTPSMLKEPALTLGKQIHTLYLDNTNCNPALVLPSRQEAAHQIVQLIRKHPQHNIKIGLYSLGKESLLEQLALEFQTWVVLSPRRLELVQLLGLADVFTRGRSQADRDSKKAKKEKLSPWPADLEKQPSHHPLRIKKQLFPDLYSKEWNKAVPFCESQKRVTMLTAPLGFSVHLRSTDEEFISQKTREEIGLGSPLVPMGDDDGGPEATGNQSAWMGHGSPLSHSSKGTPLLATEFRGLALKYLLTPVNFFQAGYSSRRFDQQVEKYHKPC
# GFP-Flag-Snm1B^221–363 = molecular target: T3, GFP-Flag-Snm1B^221–363 (human, UniProt Q9H816 221-363); experiment: co-IP; 293T transiently co-transfected, RIPA lysate, GFP-Flag-Snm1B fragments immunoprecipitated with anti-GFP antibody and GammaBind G Sepharose, immunoblot anti-Myc; conditions: partners not purified
# T3 construct: Named GFP-Flag-Snm1B: the Flag tag is at the 5′ end of the Snm1B fragment, GFP is fused in frame; also called PSF2 BR1; source: 293T, transiently transfected (pEGFP-C3), in lysate; not shown: Flag, N-terminal, kept
# T3 sequence (looked up): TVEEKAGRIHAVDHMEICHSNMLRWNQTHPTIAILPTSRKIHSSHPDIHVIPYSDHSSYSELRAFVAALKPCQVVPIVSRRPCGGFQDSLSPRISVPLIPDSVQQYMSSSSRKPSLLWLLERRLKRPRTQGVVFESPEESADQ
molecule,measurement,setting,value
N-terminal Flag epitope-tagged human Snm1B (Flag-Snm1B) (from UniProt Q9H816) N2,other: normalized Myc-PSF2:Flag-Snm1B ratio,"[1]; no Myc-TRF2 co-expressed, parent: 1",1.05
same,other: normalized Myc-PSF2:Flag-Snm1B ratio,"[1]; wild type Myc-TRF2 co-expressed (parent value is Flag-Snm1B WT + Myc-TRF2 WT + Myc-PSF2 lane), parent: 0.41",0.81
B1,fold increase of co-immunoprecipitated Mus81 with Myc-PSF2 against without Myc-PSF2,[2],> 2 fold
B2,fold of co-immunoprecipitated Myc-PSF2 against Flag-Snm1B WT,Flag-Snm1B^Δ222–363,~6 fold less
same,fold of co-immunoprecipitated Myc-PSF2 against GFP-Flag-Snm1B 413–532,GFP-Flag-Snm1B^221–363,~3 fold more

# — publication PMC3506659, “Snm1B Interacts with PSF2” (PLoS ONE, 2012)
